# Experimental data taken from patent US20230067770A1 (SHANGHAI HENLIUS BIOTECH, published 2023).
# Residue numbers refer to the chain shown, from its start. Numbers in names are those of the source.
# B1: hybridoma anti-CD137 antibody clone 29.39 (antibody, V domains shown)
# VH: EVKLMESGAELVKPGASVKLSCTASGFNIKDTYIHWVKQRPEQGLEWIGKIDPANGNTEYDLNFQGRATITADTSSNTAYLQLSSLTSEDTAVYYCTTGNLHYYLMDYWGQGTSVTSLE
# VL: DIVMTQSPSSMYASLGERVTITCKASQAINTYLSWFQQKPGKSPKTLIYRANRMVDGVPSRFSGSGSGQDYSLTISSLDYEDMGIYYCLQYDDFPYTFGGGTKLEIKR
# notes: Tested as hybridoma supernatant
# B2: hybridoma anti-CD137 antibody clone 44.21 (antibody, V domains shown)
# VH: B1 VH
# VL: DIVMTQTPLSLPVSLGDHASISCRSSQSLVHSNGNTYLHWFLQKPGQSPKLLIYKVSNRFSGVPDRFSGSGSGTDFTLKISRVEAEDLGVYFCSQNAHVPWTFGGGTKRKSNE
# notes: as for B1
# B3: hybridoma anti-CD137 antibody clone 30.19 (antibody, V domains shown)
# VH: QIQLVQSGPELKKPGETVKISCKASGYSFTDYSIHWVKQAPGKGLKWMGWMNTETGEPAYADDFKGRFAFSLETAASTAYLQINHLRDEDTATYFCTRSSYGYFDYWGQGTTLTVSS
# VL: B1 VL
# notes: as for B1
# B4: hybridoma anti-CD137 antibody clone 6.62 (antibody, V domains shown)
# VH: B3 VH
# VL: DVVMTQTPLSLPVSLGDQAAISCRSSQTLEHINGNTYLEWYLQKPGQSPKLLIYKVSDRFSGVPDRFSGSGSGTGFTLKISRVEAEDLGVYYCFQGSHFPLTFGGGTKLELK
# notes: as for B1
# B5: hybridoma anti-CD137 antibody clone 3.10 (antibody, V domains shown)
# VH: EVQLVESGPGLVAPSQSLSITCTVSGFSLTTYDVSWIRQPPGKGLEWLGVIWTGGGTNYNSTFMSRLTISKDNSKNQVFLKMNSLQTDDTATYYCVRVDYWGQGTTLTVSR
# VL: B2 VL with I2V, D17G, S32N, R109L, K110E, S111I, N112K, E113R
# notes: as for B1
# B6: 2-9-1 IgG1 SELF (antibody)
# heavy: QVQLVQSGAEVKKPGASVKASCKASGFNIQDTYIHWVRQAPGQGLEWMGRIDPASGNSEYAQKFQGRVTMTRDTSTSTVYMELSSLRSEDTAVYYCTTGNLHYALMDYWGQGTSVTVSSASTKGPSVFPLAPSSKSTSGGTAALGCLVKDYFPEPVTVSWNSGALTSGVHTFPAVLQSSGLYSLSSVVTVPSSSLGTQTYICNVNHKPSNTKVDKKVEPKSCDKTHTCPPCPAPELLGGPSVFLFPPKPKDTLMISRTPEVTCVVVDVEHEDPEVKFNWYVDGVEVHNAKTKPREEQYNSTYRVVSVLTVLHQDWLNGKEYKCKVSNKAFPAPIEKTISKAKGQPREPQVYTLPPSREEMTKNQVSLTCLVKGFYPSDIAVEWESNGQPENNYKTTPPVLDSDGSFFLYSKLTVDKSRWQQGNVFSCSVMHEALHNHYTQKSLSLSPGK
# light: DIQMTQSPSSVSASVGDRVTITCKASQPINTYLSWYQQKPGKAPKLLIYRVNRKVDGVPSRFSGSGSGTDFTLTISSLQPEDFATYYCLQYLDFPYTFGGGTKLEIKRTVAAPSVFIFPPSDEQLKSGTASVVCLLNNFYPREAKVQWKVDNALQSGNSQESVTEQDSKDSTYSLSSTLTLSKADYEKHKVYACEVTHQGLSSPVTKSFNRGEC
# notes: Subclone of 2-9 with an IgG1 Fc carrying S267E/L328F; also called clone 2-9-1 IgG1 SELF; Clone 2-9 IgG1 SELF
# B7: Clone 23 (Fab in supernatant) (Fab, V domains shown)
# VH: QVQLVQSGAEVKKPGASVKVSCKASGFNIKDTYIHWVRQAPGQGLEWMGKIDPANGQTEYAQKFQGRVTMTRDTSTSTVYMELSSLRSEDTAVYYCTTGNLHYALMDYWGQGTSVTVSS
# VL: DIQMTQSPSSVSASVGDRVTITCKASQAINTYLSWYQQKPGKAPKLLIYRANRMVGGVPSRFSGSGSGTDFTLTISSLQPEDFATYYCLQYRDFPYTFGGGTKLEIKR
# notes: Screened as Fab in supernatant
# B8: Clone 35 (Fab in supernatant) (Fab, V domains shown)
# VH: B7 VH with K30N, K50R, Q57Y
# VL: B7 VL with N30A, G56D, Y91F, R92Q
# notes: as for B7
# B9: Clone 2-11 (Fab in supernatant) (Fab, V domains shown)
# VH: B7 VH with Q57G
# VL: B7 VL with A28P, A51V, M54K, G56D, R92V
# notes: as for B7
# B10: Clone 5 (Fab in supernatant) (Fab, V domains shown)
# VH: B7 VH with K30R, Q57N, A104G
# VL: B7 VL with L33H, A51V, G56D, R92L
# notes: as for B7
# B11: Clone 9 (Fab in supernatant) (Fab, V domains shown)
# VH: B7 VH with I29L, Q57N
# VL: B7 VL with N30A, V55Y, G56D, Y91F, R92D
# notes: as for B7
# B12: Clone 25 (Fab in supernatant) (Fab, V domains shown)
# VH: B7 VH with K30Q, K50R, Q57N, T58S, A104G
# VL: B7 VL with A51D, M54K, G56D, R92Q, T97K
# notes: as for B7
# B13: Clone 3 (Fab in supernatant) (Fab, V domains shown)
# VH: B7 VH with I29P, K50R, Q57F
# VL: B7 VL with G56D, P80H, Y91S, R92D
# notes: Screened as Fab in SS320 culture supernatant
# B14: Clone 19 (Fab in supernatant) (Fab, V domains shown)
# VH: B7 VH with I29M, Q57A, A104G
# VL: B7 VL with V55G, G56D, Y91S, R92D
# notes: as for B7
# B15: Clone 18 (Fab in supernatant) (Fab, V domains shown)
# VH: B7 VH with K23Q, E46G, Q57M, M70V
# VL: B7 VL with I29P, G56D, R92E
# notes: as for B7
# B16: Clone 33 (Fab in supernatant) (Fab, V domains shown)
# VH: B7 VH with H35Q, Q57N, E59M
# VL: B7 VL with A28T, V55P, G56D, R92D
# notes: as for B7
# B17: Clone 20 (Fab in supernatant) (Fab, V domains shown)
# VH: B7 VH with I29M, Q57D
# VL: B7 VL with M54A, G56D, R92L
# notes: as for B7
# B18: aCD137-scFv-αEGFR-IgG1-Linker7 (bispecific antibody)
# heavy: not shown
# light: EIVLTQSPATLSLSPGERATLSCRASQSIGTNIHWYQQKPGQAPRLLIKYASESISGIPARFSGSGSGTDFTLTISSLEPEDFAVYYCQQNNNWPTSFGGGTKVEIKRTVAAPSVFIFPPSDEQLKSGTASVVCLLNNFYPREAKVQWKVDNALQSGNSQESVTEQDSKDSTYSLSSTLTLSKADYEKHKVYACEVTHQGLSSPVTKSFNRGEC
# notes: also called Anti-EGFR HC-anti-CD137 scFv-IgG1-Linker 7 (HCC)
# B19: aCD137-scFv-αEGFR-IgG1-Linker 10 (bispecific antibody)
# heavy: not shown
# light: B18 light
# B20: aCD137-scFv-αEGFR-IgG1-LALA-Linker 10 (bispecific antibody)
# heavy: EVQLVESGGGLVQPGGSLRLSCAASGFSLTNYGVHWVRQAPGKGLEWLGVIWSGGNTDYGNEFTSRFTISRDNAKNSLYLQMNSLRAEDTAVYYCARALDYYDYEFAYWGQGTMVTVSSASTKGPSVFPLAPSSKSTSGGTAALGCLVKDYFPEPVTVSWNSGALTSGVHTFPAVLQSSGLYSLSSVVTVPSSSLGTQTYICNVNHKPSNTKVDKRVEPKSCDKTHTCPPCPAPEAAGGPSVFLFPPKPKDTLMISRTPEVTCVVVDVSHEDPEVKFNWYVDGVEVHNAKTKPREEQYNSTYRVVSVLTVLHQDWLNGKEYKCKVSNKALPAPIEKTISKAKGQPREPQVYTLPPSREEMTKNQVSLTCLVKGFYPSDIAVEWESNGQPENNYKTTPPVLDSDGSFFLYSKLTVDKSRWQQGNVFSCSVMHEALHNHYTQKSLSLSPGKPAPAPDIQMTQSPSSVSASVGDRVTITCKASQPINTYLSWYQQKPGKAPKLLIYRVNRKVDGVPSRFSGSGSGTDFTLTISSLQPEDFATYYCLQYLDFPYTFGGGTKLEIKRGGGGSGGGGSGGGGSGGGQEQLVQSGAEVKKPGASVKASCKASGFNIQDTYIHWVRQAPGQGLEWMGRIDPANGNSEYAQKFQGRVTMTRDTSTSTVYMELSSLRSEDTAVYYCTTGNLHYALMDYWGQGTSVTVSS
# light: B18 light
# notes: The Linker 10 bispecific with the LALA mutation in the IgG1 Fc; also called Anti-EGFR HC-anti-CD137 scFv-IgG1 LALA-Linker 10 (HCC)
# B21: aCD137scFv-αEGFR-IgG1-LALA (Linker 7) (bispecific antibody)
# heavy: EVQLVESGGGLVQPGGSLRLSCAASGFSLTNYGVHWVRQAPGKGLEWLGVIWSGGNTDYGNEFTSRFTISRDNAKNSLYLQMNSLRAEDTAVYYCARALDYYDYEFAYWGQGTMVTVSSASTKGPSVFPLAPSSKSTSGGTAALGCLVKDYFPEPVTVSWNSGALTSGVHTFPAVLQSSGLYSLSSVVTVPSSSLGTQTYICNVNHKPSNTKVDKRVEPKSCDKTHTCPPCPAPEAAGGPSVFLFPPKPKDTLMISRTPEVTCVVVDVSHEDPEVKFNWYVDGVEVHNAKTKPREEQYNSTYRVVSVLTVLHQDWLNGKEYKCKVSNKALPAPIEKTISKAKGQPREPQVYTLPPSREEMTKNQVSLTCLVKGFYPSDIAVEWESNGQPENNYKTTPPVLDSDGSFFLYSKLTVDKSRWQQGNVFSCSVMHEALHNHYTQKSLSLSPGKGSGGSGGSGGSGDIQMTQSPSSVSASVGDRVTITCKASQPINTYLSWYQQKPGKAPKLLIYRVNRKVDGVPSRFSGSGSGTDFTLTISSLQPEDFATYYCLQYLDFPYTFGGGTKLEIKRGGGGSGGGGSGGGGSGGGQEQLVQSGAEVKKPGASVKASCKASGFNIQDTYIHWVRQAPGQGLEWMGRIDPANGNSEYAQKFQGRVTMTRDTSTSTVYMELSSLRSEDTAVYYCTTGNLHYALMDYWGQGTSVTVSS
# light: B18 light
# notes: The Linker 7 bispecific with the LALA mutation in the IgG1 Fc; also called Anti-EGFR-HC-anti-CD137 scFv-IgG1-LALA-Linker 7 (HCC); αCD137scFv-αEGFR-IgG1 LALA
# B22: 2-9-2 IgG4 (antibody)
# heavy: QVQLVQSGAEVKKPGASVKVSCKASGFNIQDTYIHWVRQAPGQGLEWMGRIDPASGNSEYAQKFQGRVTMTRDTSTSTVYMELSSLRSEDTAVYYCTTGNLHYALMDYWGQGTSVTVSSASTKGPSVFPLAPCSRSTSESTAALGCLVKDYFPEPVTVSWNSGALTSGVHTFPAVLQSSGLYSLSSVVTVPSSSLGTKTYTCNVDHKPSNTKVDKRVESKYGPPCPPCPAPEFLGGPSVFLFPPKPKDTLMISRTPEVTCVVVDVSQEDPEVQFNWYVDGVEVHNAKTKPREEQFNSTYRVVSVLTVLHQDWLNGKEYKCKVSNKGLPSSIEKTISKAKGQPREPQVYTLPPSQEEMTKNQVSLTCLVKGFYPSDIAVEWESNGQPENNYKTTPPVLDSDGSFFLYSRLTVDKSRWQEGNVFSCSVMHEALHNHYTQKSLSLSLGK
# light: B6 light
# notes: Subclone of 2-9; also called clone 2-9-2 IgG4 wt
# Biological target: T1, human CD137-Fc fusion protein (human, UniProt Q07011 24-186, limits assumed)
# T1 construct: also called huCD137
# Experiment: ELISA, hybridoma supernatant on plates coated with human CD137-Fc fusion protein
# Description: Hybridoma screening. Detection of binding to huCD137 by ELISA: To identify hybridomas secreting anti-human CD137 antibodies, ELISA plates (Corning) were coated with human CD137-Fc fusion protein at 1 μg/ml in PBS overnight at 4° C. […] Thirty microliters of supernatants diluted 1:3 in PBS were added to the plates and incubated for 1-2 hour at ambient temperature. Afterwards, the plates were washed as before, and binding of antibodies was detected through Horseradish peroxidase (HRP)-conjugated goat F(ab′)2 anti-human IgG. The plates were developed with TMB and read at 450 nm.
row,binding result,Binder
1,binds,B1
2,binds,B2
3,binds,B3
4,binds,B4
5,binds,B5

# Biological target: T2, Human CD137-his (human, UniProt Q07011 24-186)
# T2 construct: Bought reagent; also called Human CD137-His (Sino Biological, 10041-H08H)
# Experiment: BLI (Octet), second round, antibody captured on AHC sensor
# Description: (§1) Biolayer interferometry was used to measure the association and dissociation constants for the binding kinetics of the anti-CD137 antibodies. The binding kinetics was measured on a FortieBio Octet Red 96 at 30° C. and analyzed with the FortieBio Data Analysis 9.0 software. Anti-human-IgG Fc (AHC) sensor was used to capture the anti-CD137 antibodies or control antibodies. A kinetic buffer only well was set as a reference well for subtraction during data processing. Data were fitted with a 1:1 Langmuir model for association and dissociation using Rmax linked global fitting for each antibody-antigen binding. Human CD137-his is a recombinant CD137 antigen with a poly histidine tag fused to C-terminus of human CD137 antigen (Sino Biological, 10041-H08H). Cyno CD137-his is a recombinant CD137 antigen with a poly histidine tag fused to C-terminus of cynomolgus CD137 antigen (Sino Biological, 90847-K02H-100).
Kd,koff,kon,Binder
6.55 nM,0.00034 s⁻¹,52000 M⁻¹ s⁻¹,B6

# Biological target: T3, human-CD137 (ELISA antigen of the affinity maturation screen) (human, UniProt Q07011 24-186, limits assumed)
# T3 construct: also called human-CD137 ECD
# Experiment: ELISA of Fab in supernatants after phage panning
row,binding result,Binder
1,binds,B7
2,binds,B8
3,binds,B9
4,binds,B10
5,binds,B11
6,binds,B12
7,binds,B13
8,binds,B14
9,binds,B15
10,binds,B16
11,binds,B17

# Biological target: T4, CD137 on CD137 stably transfected 293T cells (UniProt Q07011 24-255, limits assumed)
# T4 construct: whole, on cells; also called CD137/NF-κB reporter cells
# T4 sequence (Q07011 24-255 limits assumed): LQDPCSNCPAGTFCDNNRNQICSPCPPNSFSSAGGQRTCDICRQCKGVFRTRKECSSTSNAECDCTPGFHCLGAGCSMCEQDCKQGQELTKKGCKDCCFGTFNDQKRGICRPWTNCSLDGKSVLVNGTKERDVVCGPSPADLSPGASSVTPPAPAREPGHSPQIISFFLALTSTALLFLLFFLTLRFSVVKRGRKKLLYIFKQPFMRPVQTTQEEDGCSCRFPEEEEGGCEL
# Experiment: flow cytometry, whole cell binding to CD137/NFkB 293T cells, Alexa Fluor 488 anti-human IgG F(ab')2 secondary, median fluorescence intensity
# Description: (§2) The binding affinity of bispecific antibodies to cell surface receptors was also quantified in whole cell binding assay. […] Afterwards, cells were washed with PBS twice and then incubated with secondary Alexa Fluor® 488 AffiniPure Goat Anti-Human IgG, F(ab′)2 fragment specific antibody (Jackson ImmunoResearch, Code 109-545-006) for 30 min at 4° C. in FACS buffer. The cells were then washed with PBS twice and resuspended in FACS buffer. […] The median fluorescence intensity was fitted using a non-linear model with GraphPad 8.0.
# (§3) The anti-CD137×EGFR bispecific antibodies included variants with IgG1 wild type Fc, IgG1 Fc with LALA mutation and different linkers.
row,EC50 (read off the curve),Binder
1,~10 nM,B18
2,~10 nM,B19
3,~10 nM,B20
4,~10 nM,B21

# Biological target: T5, EGFR on SK-Hep1 cells (UniProt P00533 25-1210, limits assumed)
# T5 construct: whole, on cells; also called EGFR positive SK-Hep1 tumor cells; EGFR high SK-Hep1 cells
# Experiment: flow cytometry, whole cell binding to SKHep1 EGFR high cells, Alexa Fluor 488 anti-human IgG F(ab')2 secondary, median fluorescence intensity
# Description: as §2, §3
row,EC50 (read off the curve),Binder
1,~0.3 nM,B18
2,~0.3 nM,B19
3,~0.2 nM,B20
4,~0.2 nM,B21

# Biological target: T2, Human CD137-his
# Experiment: BLI (Octet), third comparison, antibody captured on AHC sensor
# Description: as §1
Kd,koff,kon,Binder
11.1 nM,0.0006 s⁻¹,54100 M⁻¹ s⁻¹,B6
12.9 nM,0.000801 s⁻¹,62200 M⁻¹ s⁻¹,B22
